T1: CD14 (UniProt P08571 P08571:20-345)
T1 sequence: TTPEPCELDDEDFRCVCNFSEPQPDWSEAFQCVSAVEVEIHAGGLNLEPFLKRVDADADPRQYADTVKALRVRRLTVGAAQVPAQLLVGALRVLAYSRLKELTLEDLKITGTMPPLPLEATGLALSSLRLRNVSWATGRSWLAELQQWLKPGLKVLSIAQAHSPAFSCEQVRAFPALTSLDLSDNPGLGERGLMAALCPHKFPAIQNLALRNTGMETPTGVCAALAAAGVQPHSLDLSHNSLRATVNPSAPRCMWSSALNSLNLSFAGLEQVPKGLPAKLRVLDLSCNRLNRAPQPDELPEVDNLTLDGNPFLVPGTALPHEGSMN

B1: SCRM (scrambled / nonspecific control aptamer) (ssDNA)
DNA: ATCCAGAGTGACGCAGCAATGATAGTGACGTACGGACTAGGGATCACCCATATCATGTAGAGGAAGTACGTGGACACGGTGGCTTAGT
B2: A2 (ssDNA)
DNA: ATCCAGAGTGACGCAGCAGAAGAGTAGATGAAACGTTTTTTCGCCCGATAAAAGGGACGTGCGTCAGACATGGACACGGTGGCTTAGT

Assays:
[1] = biological target: T1, CD14; assay: BLI; nonspecific aptamer control; conditions: label: Cy5 (flow cytometry)
[2] = biological target: T1, CD14; assay: BLI; no significant binding over SCRM; figure legend calls it SPR, text says BLI (Octet Red96); conditions: label: Cy5

Row | Binder | binding result [1] | binding result [2]
1 | B1 | no binding | 
2 | B2 |  | no binding

Source: patent publication US20230017777, “MONOCYTE AND MACROPHAGE BINDING APTAMERS AND THEIR APPLICATION” (University of Washington, published 2023)
